Residue numbers refer to the chain shown, from its start. A value given as a limit tells only on which side of the number the result lay.

Here are results for one molecule from patent US20230340439, “SYNTHETIC MINIATURE CRISPR-CAS (CASMINI) SYSTEM FOR EUKARYOTIC GENOME ENGINEERING” (The Board of Trustees of the Leland Stanford Junior …, published 2023).

The target of data set [1] is T1, dCas14-VPR (dUn1Cas12f1-VPR) (UniProt A0A482D308 SEQ:1-529).
T1 chain: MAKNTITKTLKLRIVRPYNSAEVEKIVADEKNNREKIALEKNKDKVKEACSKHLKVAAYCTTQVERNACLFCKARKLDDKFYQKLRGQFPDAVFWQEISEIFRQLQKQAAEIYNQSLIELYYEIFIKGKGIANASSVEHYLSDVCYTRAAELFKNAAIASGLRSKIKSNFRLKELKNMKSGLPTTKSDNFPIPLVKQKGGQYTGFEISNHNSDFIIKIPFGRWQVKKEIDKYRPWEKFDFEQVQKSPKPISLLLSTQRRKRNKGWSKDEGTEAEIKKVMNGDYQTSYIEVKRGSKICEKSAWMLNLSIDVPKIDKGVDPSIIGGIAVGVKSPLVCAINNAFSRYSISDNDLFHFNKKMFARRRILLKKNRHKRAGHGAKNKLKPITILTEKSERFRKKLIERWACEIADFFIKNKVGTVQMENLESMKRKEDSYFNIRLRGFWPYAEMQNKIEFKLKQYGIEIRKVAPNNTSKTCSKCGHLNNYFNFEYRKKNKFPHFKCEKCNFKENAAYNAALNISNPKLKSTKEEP
The data set is described as follows: cell_activity; GFP activation, 3% GFP+ cells; PAM TTTR. Conditions: chain copies: 2. As to the method:
(§1) Using a doxycycline (Dox)-inducible TRE3G-EGFP HEK293T reporter cell line and a sgRNA targeting the promoter, activation efficiency of dCas14-VPR was measured. Wild-type HEK293T cells (ATCC) and the HEK293T TRE3G-GFP reporter line stably encoding EGFP under a Tet-On promoter (pTRE3G) (Y. Gao et al., Genome Res. 22, (2012): 1760-74) were cultured in DMEM with high glucose, sodium pyruvate and GlutaMAX (Thermo Fisher), additionally supplemented with 10% FBS (Sigma). Cells were grown at 37° C. and 5% CO₂ and maintained at confluency below 80%. All transfections were performed with TransIT-LT1 transfection reagent (Mirus) at a ratio of 3 µL reagent per µg of plasmid. Cells were plated 1 day before at 1×10⁵ cells/mL. For this and other GFP activation assays described in these Examples, 500 ng of dCas constructs and 250 ng sgRNA or crRNA plasmids were transfected to HEK293T TRE3G-GFP cells in 24-well plates. Transfected cells were analyzed 2 days post-transfection for GFP activation. Here, no reporter activation was observed (FIG. 3), implying the natural Cas14 system fails to function in the human genome context.

For a further data set, the target named is T2, dCasMINI-V1-VPR (D143R) (UniProt A0A482D308 SEQ:1-529).
T2 chain: T1 chain with D143R
In words: cell_activity; GFP activation; PAM TTTR. Particulars: chain copies: 2. As for the experimental part:
as §1

Data set [2] deals with T3, dCasMINI-V2-VPR (D143R/T147R) (UniProt A0A482D308 SEQ:1-529).
T3 chain: T1 chain with D143R, T147R
The data set is described as follows: cell_activity; GFP activation; PAM TTTR. Particulars: chain copies: 2. As to the method:
as §1

The target in data set [3] is T4, dCasMINI-V3-VPR (D143R/T147R/K330R) (UniProt A0A482D308 SEQ:1-529).
T4 chain: T1 chain with D143R, T147R, K330R
The data set is described as follows: cell_activity; GFP activation; PAM TTTR. As to the method:
as §1

In data set [4] the target is T5, dCasMINI-V4-VPR (D143R/T147R/K330R/E528R) (UniProt A0A482D308 SEQ:1-529, D326A,D510A).
T5 sequence: T1 chain with D143R, T147R, K330R, E528R
In words: cell_activity; GFP activation; 1.15-fold over V3 in screen; PAM TTTR. Conditions: tags: N-terminal SV40 NLS, C-terminal c-Myc NLS, mCherry.

B1: sgRNA Design 2 (stem-loop truncation) targeting TRE3G ; TRE3G promoter target (ssRNA ; dsDNA)
RNA: GGGCUUCACUGAUAAAGUGGAGAACCGCUUCACCAAAAGCUGUCCCUUAGGGGAUUAGAACUUGAGUGAAGGUGGGCUGCUUGCAUCAGCCUAAUGUCGAGAAGUGCUUUCUUCGGAAAGUAACCCUCGAAACAAAUUCAUUUGAAUGAAGGAAUGCAACCUCCCUAUCAGUGAUAGAGAACG
DNA 1: TTTACTCCCTATCAGTGATAGAGAACGTAT
DNA 2: ATACGTTCTCTATCACTGATAGGGAGTAAA
modifications: [-]
On to B1, for which the activity in data set [1] was 3.6 fold over non-targeting; with dCasMINI-V1-VPR (D143R), above 24 fold over dCas14-VPR; in data set [2], 1.55 fold over best single variant; in data set [3], 1.26 fold over D143R/T147R; in data set [4], 244 fold activation.
